Holding throughout (type): biochemical
Data set [1] can be described thus: Screening of mutant clones for improved thermal stability (96-well, heat treatment, DNS). Particulars: 52.5° C. water bath for two hours. The method, then:
Transformants were picked up by sterile toothpick to a LB liquid culture containing antibiotic and IPTG (in a final concentration of 1 mM) contained within the wells of a 96-well plate and cultured overnight at 37° C. and 200 rpm. Thallus was collected by centrifugation. 100 ul buffers having the optimum reaction pH were added to re-suspend the thallus. Clone from each well was divided into a control group and a treatment group, with 50 ul for each well. The control group was stored at 4° C. The treatment group was treated in a water bath having a suitable temperature for 2 hours. After adding 2% xylan to each well, the mixture was allowed to react under 37° C. for 1 hour. Enzymatic activity was detected according to the DNS method. After treatment, the treatment group of the wild type clone retained an enzymatic activity which was about 10˜20% of its control group. […] The thermal stability of finally obtained mutants was tested according to the method described in Example 3. The overnight thallus was re-suspended and divided into two groups, which were the control and treatment groups, respectively. […] Then the enzymatic activity was detected. The residual enzymatic activity of the treatment group was calculated as a percentage of the enzymatic activity of the treatment group in relative to that of the control group. […]

The nature of data set [2]: TLC analysis on hydrolyzed products of birch xylan by Xyl7. The method, then:
1% (w/w) Birch xylan was treated by 15 U Xyl7 at pH7.0 and 50[…] for 10 min, 1 h, 4 h, and 12 h, respectively, to obtain the hydrolyzed products. […], each 5 μl, were subjected to TLC for identification. The standard samples were xylose, xylobiose, and xylotriose. The developing agent comprised ethyl acetate, acetic acid and water in a ratio of 2:1:1(V/V/V). The chromogenic agent was a solution of 1 mL aniline, 1 g diphenylamine and 5 mL 85% phosphoric acid dissolved in 50 mL acetone.

A short description of data set [3]: Detection of the optimum pH. The method, then: (§1) In a 100 μl reaction system, birch xylan was added to a final concentration of 1% (w/w), and Na2HPO4/NaH2PO4 buffer (pH7.0) was added to a final concentration of 100 mM. A suitable amount of enzyme solution diluted by the abovementioned buffer was added to the reaction system for reaction at 50[…] for 10 minutes. 100 μl DNS were added to stop the reaction. For the control, 100 μl DNS were firstly added to the above reaction system before adding the enzyme solution. The reaction mixtures were subjected to a boiled water bath for 5 minutes to develop color. Absorbance value at 540 nm was detected by a microplate reader. After subtracting the absorbance value of the control from that of the sample, the enzymatic activity unit (U) was calculated based on the standard curve.
Buffers having different pH values in the range of 3.5-10 in a gradient of 0.5 unit were prepared, wherein NaAc with a final concentration of 100 mM was used to prepare the buffers having a pH in the range of 3.5-6.0, Na2HPO4/NaH2PO4 with a final concentration of 100 mM was used to prepare the buffers having a pH in the range of 6.0-8.0, and Tris-HCl with a final concentration of 100 mM was used to prepare the buffers having a pH in the range of 8.0-10.0. The enzyme solution was added into each pH buffer system and the enzymatic activity was tested according to the above standard enzymatic activity detection steps. […]

The nature of data set [4]: Residual activity under pulp bleaching conditions (alkaline pH, high temperature). Particulars: 50-70, pH8-9, one to two hours. The method, then:
as §1, with “curve. […]” for “curve.”

B1: Xyl7: endo-1,4-β-xylanase of 505 amino acids, SEQ ID NO:2, from termite gut metagenome, expressed in E. coli with His tag (protein)
chain: MKKLIALSFIAAFFAPLFAQGPTWTTSTIQAYNGYDYELWNQNNAGTVSMKLTGDNGSGASAVGGTFTATWSNTQNVLFRSGKKWGSSSNQNHTQIGNMSINFAATWSSTDNVKMLGVYGWAYFTSANVPTKQENGTNASFSNQIEYYIIQDRGSYNPASGGTNAKKYGSATIDGIAYDFYVCDRINQPMLTGNGNFKQFFSVPQSASAHRTSGTISVSQHFNKWHELGMKMDGPLYEVAMKVESYTGSGSSNGSATVTKNLLTIGGTTPTPSSNSGGTTSSSSRASSSSRASSSSNAAVQATTCKTPLITYPTSTVPSDPYTACFKYTDDKCYVCKVENEGEFEGNMNTCGSGWVWDGTQIDNNLRDGYWYQEVPCPAGSSSSRSSSSSVAVSSSSRSSSSSVAASSSSRSSSSSASVSSSSEETPIRVLHTIPSKFRVRSLNNGALQIESNADVVLYLYDTKGKMAQKIEAPTGSSIVKLSVPAGIYIVRNVQTKEKLRVMVR
modifications: His tag; Intestinal tract metagenome of termite
B1: the “enzymatic activity of the treatment group as % of the control group” value in data set [1] is 10˜20%. In data set [2] (10 minutes, pH7.0, 50), the “hydrolyzed product of xylan, action time relatively short” value is “oligoxylan”. Also, in data set [2] (12 hours, pH7.0, 50), the “hydrolyzed product of xylan, action time relatively long” value is “xylo-oligosaccharide, mainly including xylobiose, xylotriose and xylotetraose”. Moreover, the “final hydrolyzed product if the enzyme was excessive” value in data set [2] (excess enzyme) was “xylose”. Moreover, the “optimum pH” value in data set [3] (buffers pH 3.5-10, 50) stood at 7.0. Moreover, the “relative activity in the pH range of from 5.5 to 10” value in data set [3] (relative to activity at pH7.0, 50) is at least 50%. In addition, the “residual enzymatic activity at high temperature in alkaline environment” value in data set [4] was “retain a sufficiently high enzymatic activity”.

The values above are taken from US20160201045A1, “Endo-xylanase and Coding Gene and Use Thereof” (SHANGHAI INSTITUTES FOR BIOLOGICAL SCIENCES CHINESE ACADEMY …, priority 2013, published 2016).
